# Several values for one entry are separate records, joined by “and”; a condition that tells them apart may be missing. Identical values can stand only once.
# B1: 28H3/28K1: rabbit recombinant monoclonal antibody to MTX, VH SEQ ID NO: 1, VL SEQ ID NO: 5 (antibody)
# VH: METGPRWLLLVAVLKGVQCQSLEESGGDLVKPGASLALTCKASGLDFSRSDHWICWVRQAPGKGLESIGCIYIGSGTFVRSGTTYYASWAKGRFTISKTSSTTVTLQMTSLTGADTATYFCARGFYATDGYGGPSYLNLWGQGTLVTVSSGQPKAPSVFPLAPCCGDTPSSTVTLGCLVKGYLPEPVTVTWNSGTLTNGVRTFPSVRQSSGLYSLSSVVSVTSSSQPVTCNVAHPATNTKVDKTVAPSTCSKPTCPPPELLGGPSVFIFPPKPKDTLMISRTPEVTCVVVDVSQDDPEVQFTWYINNEQVRTARPPLREQQFNSTIRVVSTLPITHQDWLRGKEFKCKVHNKALPAPIEKTISKARGQPLEPKVYTMGPPREELSSRSVSLTCMINGFYPSDISVEWEKNGKAEDNYKTTPAVLDSDGSYFLYNKLSVPTSEWQRGDVFTCSVMHEALHNHYTQKSISRSPGK
# VL: MDTRAPTQLLGLLLLWLPGARCADIVMTQTPASVEAAVGGTVTIKCQASESISSYCSWFQQKPGQPPKLLIYRASTLESGVPSRFKGSGSGTQFTLTISDLECADAATYYCQSYAYSSPDSYGSTFGGGTEVVVKGDPVAPTVLIFPPAADQVATGTVTIVCVANKYFPDVTVTWEVDGTTQTTGIENSKTPQNSADCTYNLSSTLTLTSTQYNSHKEYTCKVTQGTTSVVQSFNRGDC
# B2: 64H1/64K1: rabbit recombinant monoclonal antibody to MTX, VH SEQ ID NO: 17, VL SEQ ID NO: 21 (antibody)
# VH: METGLRWLLLVAVLKGVQCQSLEESGGRLVTPGTPMTLTCTASGFSLVKYYMTWVRQAPGKGLEYIGVIWSGGMTYYASWAKGRFTISRTSTTVDLKIISPTTEDTATYFCARERDYFDGYIGNDIWGQGTLVTVSSGQPKAPSVFPLAPCCGDTPSSTVTLGCLVKGYLPEPVTVTWNSGTLTNGVRTFPSVRQSSGLYSLSSVVSVTSSSQPVTCNVAHPATNTKVDKTVAPSTCSKPTCPPPELLGGPSVFIFPPKPKDTLMISRTPEVTCVVVDVSQDDPEVQFTWYINNEQVRTARPPLREQQFNSTIRVVSTLPITHQDWLRGKEFKCKVHNKALPAPIEKTISKARGQPLEPKVYTMGPPREELSSRSVSLTCMINGFYPSDISVEWEKNGKAEDNYKTTPAVLDSDGSYFLYNKLSVPTSEWQRGDVFTCSVMHEALHNHYTQKSISRSPGK
# VL: MDTRAPTQLLGLLLLWLPGATFAQVLTQTPSSVSAAVGGTVTINCQSSQSVWSRHLSWFQQKPGQPPKLLIYKASTLASGVPSRFSGSGSGTQFTLTISDVQCDDAATYYCLGGYTCIRDDCRAFGGGTEVVVKGDPVAPTVLIFPPAADQVATGTVTIVCVANKYFPDVTVTWEVDGTTQTTGIENSKTPQNSADCTYNLSSTLTLTSTQYNSHKEYTCKVTQGTTSVVQSFNRGDC
# Test: Homogeneous enzyme immunoassay calibration curves with antibody clones and DAMP-Y-S-G6PDH conjugate
# Type: biochemical
# Description: MTX antibodies and enzyme conjugates may be advantageously used in accordance with the present disclosure in a homogeneous assay format to detect a MTX analyte in samples. Antibodies may be evaluated by known methods, such as, conjugate inhibition, conjugate modulation, calibration, cross-reactivity and spike-recovery. For these purposes, cloned antibodies (28H3-K1, 32H1-K2, 64H1-K1) is added into the antibody diluent to prepare the antibody reagent. The antibody reagent includes antibody as prepared above, buffer, salts, stabilizers, preservatives, NAD^+, and glucose-6-phosphate. Enzyme conjugate DAMP-Y-S-G6PDH is added into the conjugate diluent to prepare the enzyme conjugate reagent. The enzyme conjugate reagent includes the conjugate, buffer, stabilizers, salts, and preservatives.
# A clinical chemistry analyzer useful to evaluate antibodies and enzyme conjugates in a homogeneous enzyme immunoassay format is the Beckman Coulter AU480 (Beckman Coulter, Brea, CA). The Beckman AU480 is an automated biochemistry spectrophotometer analyzer used by medical laboratories to process biological fluid specimens, such as urine, cerebrospinal fluid, oral fluids, plasma and serum. The analyzer is capable of maintaining a constant temperature, pipetting samples, mixing reagents, measuring light absorbance and timing the reaction accurately.
# A homogeneous enzyme immunoassay is conducted using a liquid, ready-to-use, two reagent assay as described above. Typically, 2-15 μL MTX analyte-containing sample is incubated with 75-150 μL antibody reagent followed by the addition of the 50-100 μL enzyme conjugate reagent.
# The assay is a homogeneous enzyme immunoassay technique used for the analysis of MTX in biological fluids. The assay is based on competition between MTX in the specimen and -MTX or MTX analog (DAMP derivatives of the current invention) labeled with the enzyme glucose-6-phosphate dehydrogenase (G6PDH) for antibody binding sites. Enzyme activity decreases upon binding to the antibody, so the drug concentration in the sample can be measured in terms of enzyme activity. Active enzyme converts nicotinamide adenine dinucleotide (NAD^+) to NADH, resulting in an absorbance change that is measured spectrophotometrically at 340 nm. […] The change in the absorbance at 340 nm can be measured spectrophotometrically and is proportional to the enzyme conjugate activity which in turn is related to analyte concentration (see FIG. 14).
# MTX analyte antibodies and enzyme conjugate (DAMP-Y-S-G6PDH) were used in a homogeneous assay format to generate calibration curves using MTX standards as described in Example 12. Antibody reagents were prepared as described in Example 8 through 11 using DAMP-Y-KLH generated rabbit antibodies and cloned antibodies through B-cell. Enzyme conjugate DAMP-Y-S-G6PDH was used to prepare the conjugate reagent. A 6-point calibration curve was generated on the Beckman AU480 clinical chemistry analyzer as described in Examples 12. […]
# [1] = antibody 200.0 μL/g, Cals 0.00 μM
# [2] = antibody 200.0 μL/g, Cals 0.05 μM
# [3] = antibody 200.0 μL/g, Cals 0.15 μM
# [4] = antibody 200.0 μL/g, Cals 0.50 μM
# [5] = antibody 200.0 μL/g, Cals 1.20 μM
# [6] = antibody 82.5 μL/g, Cals 0.00 μM
# [7] = antibody 82.5 μL/g, Cals 0.05 μM
# [8] = antibody 82.5 μL/g, Cals 0.15 μM
# [9] = antibody 82.5 μL/g, Cals 0.50 μM
# [10] = antibody 82.5 μL/g, Cals 1.20 μM
# [11] = antibody 90.0 μL/g, Cals 0.00 μM
# [12] = antibody 90.0 μL/g, Cals 0.05 μM
# [13] = antibody 90.0 μL/g, Cals 0.15 μM
# [14] = antibody 90.0 μL/g, Cals 0.50 μM
# [15] = antibody 90.0 μL/g, Cals 1.20 μM
# [16] = antibody 100.0 μL/g, Cals 0.00 μM
# [17] = antibody 100.0 μL/g, Cals 0.05 μM
# [18] = antibody 100.0 μL/g, Cals 0.15 μM
# [19] = antibody 100.0 μL/g, Cals 0.50 μM
# [20] = antibody 100.0 μL/g, Cals 1.20 μM
molecule,measurement,setting,value
B1,Separation,"antibody 200.0 μL/g, 0.00 to 0.05 μM",43.2 ΔmA/min.
same,Separation,"antibody 200.0 μL/g, 0.00 to 1.20 μM",157.5 ΔmA/min.
same,Separation,"antibody 200.0 μL/g, 0.05 to 0.15 μM",76.3 ΔmA/min.
same,Separation,"antibody 200.0 μL/g, 0.25 to 0.50 μM",0.2 ΔmA/min.
same,Separation,"antibody 200.0 μL/g, 0.50 to 1.20 μM",1.8 ΔmA/min.
same,Absorbance,[1],0.4534 and 0.4555
same,Average Rate,[1],454.45 mA/min
same,Absorbance,[2],0.4989 and 0.4964
same,Average Rate,[2],497.65 mA/min
same,Absorbance,[3],0.5737 and 0.5742
same,Average Rate,[3],573.95 mA/min
same,Absorbance,[4],0.6112 and 0.6092
same,Average Rate,[4],610.20 mA/min
same,Absorbance,[5],0.6095 and 0.6144
same,Average Rate,[5],611.95 mA/min
B2,Separation,"antibody 82.5 μL/g, 0.00 to 0.05 μM",39.3 ΔmA/min.
same,Separation,"antibody 82.5 μL/g, 0.00 to 1.20 μM",256.1 ΔmA/min.
same,Separation,"antibody 82.5 μL/g, 0.05 to 0.15 μM",76.7 ΔmA/min.
same,Separation,"antibody 82.5 μL/g, 0.25 to 0.50 μM",55.8 ΔmA/min.
same,Separation,"antibody 82.5 μL/g, 0.50 to 1.20 μM",22.6 ΔmA/min.
same,Absorbance,[6],0.3378 and 0.3384
same,Average Rate,[6],338.10 mA/min
same,Absorbance,[7],0.3775 and 0.3772
same,Average Rate,[7],377.35 mA/min
same,Absorbance,[8],0.4548 and 0.4533
same,Average Rate,[8],454.05 mA/min
same,Absorbance,[9],0.5708 and 0.5725
same,Average Rate,[9],571.65 mA/min
same,Absorbance,[10],0.5943 and 0.5941
same,Average Rate,[10],594.20 mA/min
same,Separation,"antibody 90.0 μL/g, 0.00 to 0.05 μM",35.3 ΔmA/min.
same,Separation,"antibody 90.0 μL/g, 0.00 to 1.20 μM",256.5 ΔmA/min.
same,Separation,"antibody 90.0 μL/g, 0.05 to 0.15 μM",69.9 ΔmA/min.
same,Separation,"antibody 90.0 μL/g, 0.25 to 0.50 μM",60.8 ΔmA/min.
same,Separation,"antibody 90.0 μL/g, 0.50 to 1.20 μM",30.8 ΔmA/min.
same,Absorbance,[11],0.3355 and 0.3373
same,Average Rate,[11],336.40 mA/min
same,Absorbance,[12],0.3723 and 0.3711
same,Average Rate,[12],371.70 mA/min
same,Absorbance,[13],0.4421 and 0.4412
same,Average Rate,[13],441.65 mA/min
same,Absorbance,[14],0.5624 and 0.5618
same,Average Rate,[14],562.10 mA/min
same,Absorbance,[15],0.5925 and 0.5933
same,Average Rate,[15],592.90 mA/min
same,Separation,"antibody 100.0 μL/g, 0.00 to 0.05 μM",28.3 ΔmA/min.
same,Separation,"antibody 100.0 μL/g, 0.00 to 1.20 μM",250.1 ΔmA/min.
same,Separation,"antibody 100.0 μL/g, 0.05 to 0.15 μM",63.1 ΔmA/min.
same,Separation,"antibody 100.0 μL/g, 0.25 to 0.50 μM",72.9 ΔmA/min.
same,Separation,"antibody 100.0 μL/g, 0.50 to 1.20 μM",38.7 ΔmA/min.
same,Absorbance,[16],0.3401 and 0.3411
same,Average Rate,[16],340.60 mA/min
same,Absorbance,[17],0.3679 and 0.3698
same,Average Rate,[17],368.85 mA/min
same,Absorbance,[18],0.4318 and 0.4320
same,Average Rate,[18],431.90 mA/min
same,Absorbance,[19],0.5529 and 0.5511
same,Average Rate,[19],552.00 mA/min
same,Absorbance,[20],0.5913 and 0.5901
same,Average Rate,[20],590.70 mA/min

# From patent publication US12163955B2, “Antibodies to methotrexate and uses thereof” (Ark Diagnostics, Inc., priority 2023, dated 2024)
